Experimental data: patent US20160258933A1 (Dana-Farber, published 2016)
Each block holds one binder with its values, some of them ahead of it. Ends that are not written are not given here. * marks the point of attachment. FITC = O=C1OC2(c3ccc(O)cc3Oc3cc(O)ccc32)c2ccc(NC(=S)*)cc21; Ahx = NCCCCCC(=O)O

Columns and labels:
GST-BCL-2 [1] = target: T1, GST-BCL-2 (human, UniProt P10415 1-218, limits assumed); test: fluorescence polarization, FITC peptide with GST-BCL-2
T1 construct: Bacterially expressed GST fusion; not shown: GST tag
Protocol: (§1) Binding assays were performed using fluorescence polarization as previously described (Letai et al., 2002). A minimum of three independent experiments were used to determine each dissociation constant.
(§2) To determine selectivity in interactions among antiapoptotic BCL-2 family members and BH3 domains of BH3-only proteins, fluorescence polarization binding assays (FPA) were used. Antiapoptotic proteins BCL-2, BCL-XL, MCL-1, BCL-w, and BFL-1 were purified from transfected bacteria as GST fusion proteins. Oligopeptides used for FPA were tagged with an N-terminal FITC moiety.

GST-BCL-w = target: T2, GST-BCL-w (human, UniProt Q92843 1-164, limits assumed); test: fluorescence polarization, FITC peptide with GST-BCL-w
T2 construct: Bacterially expressed GST fusion; not shown: GST tag
T2 sequence (looked up): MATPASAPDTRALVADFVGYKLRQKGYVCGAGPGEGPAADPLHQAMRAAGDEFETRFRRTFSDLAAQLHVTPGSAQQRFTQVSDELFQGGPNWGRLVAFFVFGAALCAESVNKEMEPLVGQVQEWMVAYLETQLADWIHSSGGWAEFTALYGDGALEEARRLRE
Protocol: as §1, §2

GST-BFL-1 = target: T3, GST-BFL-1 (human, UniProt Q16548 1-153, limits assumed); test: fluorescence polarization, FITC peptide with GST-BFL-1
T3 construct: Bacterially expressed GST fusion; not shown: GST tag
T3 sequence (looked up): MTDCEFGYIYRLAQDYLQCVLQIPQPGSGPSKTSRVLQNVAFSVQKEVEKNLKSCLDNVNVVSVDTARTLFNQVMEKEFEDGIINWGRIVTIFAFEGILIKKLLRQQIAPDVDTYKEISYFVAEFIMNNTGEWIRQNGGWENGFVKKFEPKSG
Protocol: as §1, §2

GST-BCL-XL = target: T4, GST-BCL-XL (human, UniProt Q07817 1-212, limits assumed); test: fluorescence polarization, FITC peptide with GST-BCL-XL
T4 construct: Bacterially expressed GST fusion; not shown: GST tag
Protocol: as §1, §2

GST-MCL-1 = target: T5, GST-MCL-1 (human, UniProt Q07820 1-327, limits assumed); test: fluorescence polarization displacement of fluorescein BIM BH3 from 0.1 uM GST-MCL-1
T5 construct: not shown: GST tag
Protocol: as §1

GST-BCL-2 [2] = target: T1, GST-BCL-2; test: fluorescence polarization (Table 2b) as retold
GST-BCL-2 [3] = target: T1, GST-BCL-2; test: fluorescence polarization displacement of fluorescein BIM BH3 from 0.5 uM GST-BCL-2
Protocol: as §1

T1 sequence (P10415 1-218 limits assumed): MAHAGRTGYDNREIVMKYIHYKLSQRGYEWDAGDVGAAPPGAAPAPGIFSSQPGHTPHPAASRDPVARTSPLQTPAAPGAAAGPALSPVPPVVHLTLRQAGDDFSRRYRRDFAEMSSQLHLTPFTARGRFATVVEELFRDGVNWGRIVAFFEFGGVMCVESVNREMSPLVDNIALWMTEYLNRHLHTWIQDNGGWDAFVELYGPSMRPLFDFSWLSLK
T4 sequence (Q07817 1-212 limits assumed): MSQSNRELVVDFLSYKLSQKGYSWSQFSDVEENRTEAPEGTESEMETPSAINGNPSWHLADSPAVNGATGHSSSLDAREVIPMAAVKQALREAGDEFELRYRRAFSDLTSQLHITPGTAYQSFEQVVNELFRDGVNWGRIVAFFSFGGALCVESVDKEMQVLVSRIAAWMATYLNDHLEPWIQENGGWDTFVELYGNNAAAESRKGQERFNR
T5 sequence (Q07820 1-327 limits assumed): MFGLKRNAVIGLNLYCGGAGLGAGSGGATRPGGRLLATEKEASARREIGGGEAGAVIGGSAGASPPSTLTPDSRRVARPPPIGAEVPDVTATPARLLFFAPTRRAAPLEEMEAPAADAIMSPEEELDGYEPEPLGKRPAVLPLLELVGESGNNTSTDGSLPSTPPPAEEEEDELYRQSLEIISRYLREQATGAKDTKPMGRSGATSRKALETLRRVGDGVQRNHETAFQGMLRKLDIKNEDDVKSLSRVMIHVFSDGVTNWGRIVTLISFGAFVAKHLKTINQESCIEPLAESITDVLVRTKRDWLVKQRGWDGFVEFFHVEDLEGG

binding result (GST-BCL-2 [1]): no binding
binding result (GST-BCL-w): no binding
binding result (GST-BFL-1): no binding
binding result (GST-BCL-XL): no binding
B4: NOXA B BH3 peptide, N-terminal fluorescein tagged (peptide)
peptide: {FITC-Ahx}-PADLKDECAQLRRIGDKVNL

binding result (GST-BCL-2 [3]): no binding
B5: NOXA A BH3 peptide (no tag stated) (peptide)
peptide: AELPPEFAAQLRKIGDKVYC
notes: Peptide as titrated in the displacement assay and used on mitochondria and cells

The remaining lines, values behind:

B1: NOXA A BH3 peptide, N-terminal fluorescein tagged (peptide)
peptide: {FITC-Ahx}-AELPPEFAAQLRKIGDKVYC
binding result (GST-BCL-2 [1]): no binding
binding result (GST-BCL-w): no binding
binding result (GST-BFL-1): no binding
binding result (GST-BCL-XL): no binding

B2: BAD BH3 peptide (no tag stated) (peptide)
peptide: LWAAQRYGRELRRMSDEFEGSFKGL
notes: as for B5
binding result (GST-MCL-1): no binding

B3: BIK BH3 peptide, N-terminal fluorescein tagged (peptide)
peptide: {FITC-Ahx}-MEGSDALALRLACIGDEMDV
fold lower affinity than BAD BH3 (GST-BCL-2 [2]): ~10 fold
fold lower affinity than BAD, PUMA or BMF BH3 (GST-BCL-2 [2]): ~10 fold
